We go through two substances from paper PMC6901573.

pKd: −log10 of the molar value.

As a reminder, the pKd is −log10 of the Kd, conventionally taken in molar units.

Assay [1] has as its target Human hemoglobin A, oxidized form (methemoglobin, MetHb) (human) (UniProt P69905). The assay is described as follows: SEC; tetramer to dimers; HiLoad 16/600 Superdex 75 in reaction buffer (Tris/HCl 100 mM, NaCl 150 mM, EDTA 1 mM, pH 8.0); Hb in the oxy and met forms injected at different concentrations. A general note: SEC sorts molecules by how far they enter the pores of the column.

Assay [2] concerns the target Human hemoglobin A, reduced oxygenated form (OxyHb) (human) (UniProt P69905). The description is as above.

With “Human hemoglobin A, oxidized form (methemoglobin, MetHb), P69905 1-142; P68871 1-147 (complex; other documents disagree on this pair)”, in assay [1], the negative-log Kd (pKd) is 6.28.
On to “Human hemoglobin A, reduced oxygenated form (OxyHb), P69905 1-142; P68871 1-147 (complex; other documents disagree on this pair)”, for which the pKd in assay [2] is 6.60.
